Experiment: Fluorescence emission spectra without and with saturating ligand (wavelength shift, ΔIstd, ΔRmax)
Set-up: key to ΔIstd: intensity change at λstd normalized to average intensity; key to ΔRmax: ratio change of two emission band areas, unbound vs saturated
Conditions: unbound vs ligand-saturated; for ΔIstd: standard intensity change; for ΔRmax: standard ratiometric change
Protocol: Fluorimetry. All measurements were conducted with an SLM Aminco-Bowman series 2 fluorimeter, with sample stirring at 25° C. Fluorescence emission spectra were acquired with excitation and emission slit widths of 4 and 8 nm, respectively. Photomultiplier tube potential was maintained between 400 and 800 volts. Protein concentrations were in the range of 50 to 1000 nM. Fluorophore-specific excitation was at the following approximate wavelengths: tryptophan, 290 nm; acrylodan, 390 nm; fluorescein, 485 nm; pyrene, 340 nm; NBD and NBDE, 490 nm; JPW4039, 485 nm; JPW4042, 470 nm; JPW4045, 470 nm.
Assessment of fluorescent biosensor function. Fluorescence emission spectra of bPBP-fluorophore conjugates were recorded in the absence and presence of saturating ligand concentrations. Spectral changes were characterized by four parameters: wavelength shift (the difference between the wavelengths of emission maximum in the unbound and ligand-saturated states), direction of intensity change (increase or decrease in intensity at the wavelengths of maximum emission in the two states), standard intensity change (ΔIstd), and standard ratiometric change (ΔR). ΔIstd is defined as the normalized intensity change relative to the average intensity, determined at the wavelength mid-point between the two emission maxima:
[formula] where λstd=(λmax, unbound+λmax, saturated)/2 and I1, I2 are the fluorescence intensities at λstd of each spectrum respectively (FIG. 4A). ΔR is defined in terms of two emission bands, A1 ([λ1, λ2]) and A2 ([λ3, λ4]) (FIG. 4B):
[formula] where ^∘A1, […] the areas in the absence of ligand, and ^∞A1, ^∞A2 the areas in the presence of saturating ligand. A computer program was used to enumerate ΔR for all possible pairs of wavelength bands in the two spectra, to identify the optimal sensing condition, defined as the maximum value of ΔR. Adjustable parameters of the algorithm, and their values used for ΔRmax quantities reported here, are: step size (2 nm), step width (10 nm), minimum integration area limit (fraction of total: 0.1), and maximum integration area limit (fraction of total: 1).

| Molecule | ΔIstd | ΔRmax |
| --- | --- | --- |
| phosphate BP A225C JPW4039 (conjugate, UniProt P0AG82 26-346, looked up, variant A225C, JPW4039 label) Phosphate-binding protein PstS: EASLTGAGATFPAPVYAKWADTYQKETGNKVNYQGIGSSGGVKQIIANTVDFGASDAPLSDEKLAQEGLFQFPTVIGGVVLAVNIPGLKSGELVLDGKTLGDIYLGKIKKWDDEAIAKLNPGLKLPSQNIAVVRRADGSGTSFVFTSYLAKVNEEWKNNVGTGSTVKWPIGLGGKGNDGIAAFVQRLPGAIGYVEYAYAKQNNLAYTKLISADGKPVSPTEENFCNAAKGADWSKTFAQDLTNQKGEDAWPITSTTFILIHKDQKKPEQGTEVLKFFDWAYKTGAKQANDLDYASLPDSVVEQVRAAWKTNIKDSSGKPLY | 0.36 | 2.86 |
| phosphate BP N226C JPW4039 (conjugate, UniProt P0AG82 26-346, looked up, variant N226C, JPW4039 dye conjugate) Phosphate-binding protein PstS: EASLTGAGATFPAPVYAKWADTYQKETGNKVNYQGIGSSGGVKQIIANTVDFGASDAPLSDEKLAQEGLFQFPTVIGGVVLAVNIPGLKSGELVLDGKTLGDIYLGKIKKWDDEAIAKLNPGLKLPSQNIAVVRRADGSGTSFVFTSYLAKVNEEWKNNVGTGSTVKWPIGLGGKGNDGIAAFVQRLPGAIGYVEYAYAKQNNLAYTKLISADGKPVSPTEENFACAAKGADWSKTFAQDLTNQKGEDAWPITSTTFILIHKDQKKPEQGTEVLKFFDWAYKTGAKQANDLDYASLPDSVVEQVRAAWKTNIKDSSGKPLY | 0.26 | 2.94 |
| phosphate BP A225C Acrylodan (conjugate, UniProt P0AG82 26-346, looked up, variant A225C, acrylodan conjugate) Phosphate-binding protein PstS: EASLTGAGATFPAPVYAKWADTYQKETGNKVNYQGIGSSGGVKQIIANTVDFGASDAPLSDEKLAQEGLFQFPTVIGGVVLAVNIPGLKSGELVLDGKTLGDIYLGKIKKWDDEAIAKLNPGLKLPSQNIAVVRRADGSGTSFVFTSYLAKVNEEWKNNVGTGSTVKWPIGLGGKGNDGIAAFVQRLPGAIGYVEYAYAKQNNLAYTKLISADGKPVSPTEENFCNAAKGADWSKTFAQDLTNQKGEDAWPITSTTFILIHKDQKKPEQGTEVLKFFDWAYKTGAKQANDLDYASLPDSVVEQVRAAWKTNIKDSSGKPLY | 0.08 | 1.95 |
| phosphate BP A225C JPW4042 (conjugate, UniProt P0AG82 26-346, looked up, variant A225C, JPW4042 dye conjugate) Phosphate-binding protein PstS: EASLTGAGATFPAPVYAKWADTYQKETGNKVNYQGIGSSGGVKQIIANTVDFGASDAPLSDEKLAQEGLFQFPTVIGGVVLAVNIPGLKSGELVLDGKTLGDIYLGKIKKWDDEAIAKLNPGLKLPSQNIAVVRRADGSGTSFVFTSYLAKVNEEWKNNVGTGSTVKWPIGLGGKGNDGIAAFVQRLPGAIGYVEYAYAKQNNLAYTKLISADGKPVSPTEENFCNAAKGADWSKTFAQDLTNQKGEDAWPITSTTFILIHKDQKKPEQGTEVLKFFDWAYKTGAKQANDLDYASLPDSVVEQVRAAWKTNIKDSSGKPLY | 0.30 | 1.32 |
| phosphate BP S39C JPW4039 (conjugate, UniProt P0AG82 26-346, looked up, variant S39C, JPW4039 dye conjugate) Phosphate-binding protein PstS: EASLTGAGATFPAPVYAKWADTYQKETGNKVNYQGIGSCGGVKQIIANTVDFGASDAPLSDEKLAQEGLFQFPTVIGGVVLAVNIPGLKSGELVLDGKTLGDIYLGKIKKWDDEAIAKLNPGLKLPSQNIAVVRRADGSGTSFVFTSYLAKVNEEWKNNVGTGSTVKWPIGLGGKGNDGIAAFVQRLPGAIGYVEYAYAKQNNLAYTKLISADGKPVSPTEENFANAAKGADWSKTFAQDLTNQKGEDAWPITSTTFILIHKDQKKPEQGTEVLKFFDWAYKTGAKQANDLDYASLPDSVVEQVRAAWKTNIKDSSGKPLY | 0.36 | 3.15 |
| phosphate BP N223C Fluorescein (conjugate, UniProt P0AG82 26-346, looked up, variant N223C, fluorescein conjugate) Phosphate-binding protein PstS: EASLTGAGATFPAPVYAKWADTYQKETGNKVNYQGIGSSGGVKQIIANTVDFGASDAPLSDEKLAQEGLFQFPTVIGGVVLAVNIPGLKSGELVLDGKTLGDIYLGKIKKWDDEAIAKLNPGLKLPSQNIAVVRRADGSGTSFVFTSYLAKVNEEWKNNVGTGSTVKWPIGLGGKGNDGIAAFVQRLPGAIGYVEYAYAKQNNLAYTKLISADGKPVSPTEECFANAAKGADWSKTFAQDLTNQKGEDAWPITSTTFILIHKDQKKPEQGTEVLKFFDWAYKTGAKQANDLDYASLPDSVVEQVRAAWKTNIKDSSGKPLY | 0.06 | 0.01 |
| phosphate BP N226C JPW4042 (conjugate, UniProt P0AG82 26-346, looked up, variant N226C, JPW4042 dye conjugate) Phosphate-binding protein PstS: EASLTGAGATFPAPVYAKWADTYQKETGNKVNYQGIGSSGGVKQIIANTVDFGASDAPLSDEKLAQEGLFQFPTVIGGVVLAVNIPGLKSGELVLDGKTLGDIYLGKIKKWDDEAIAKLNPGLKLPSQNIAVVRRADGSGTSFVFTSYLAKVNEEWKNNVGTGSTVKWPIGLGGKGNDGIAAFVQRLPGAIGYVEYAYAKQNNLAYTKLISADGKPVSPTEENFACAAKGADWSKTFAQDLTNQKGEDAWPITSTTFILIHKDQKKPEQGTEVLKFFDWAYKTGAKQANDLDYASLPDSVVEQVRAAWKTNIKDSSGKPLY | 0.29 | 2.05 |
| phosphate BP A225C JPW4045 (conjugate, UniProt P0AG82 26-346, looked up, variant A225C, JPW4045 label) Phosphate-binding protein PstS: EASLTGAGATFPAPVYAKWADTYQKETGNKVNYQGIGSSGGVKQIIANTVDFGASDAPLSDEKLAQEGLFQFPTVIGGVVLAVNIPGLKSGELVLDGKTLGDIYLGKIKKWDDEAIAKLNPGLKLPSQNIAVVRRADGSGTSFVFTSYLAKVNEEWKNNVGTGSTVKWPIGLGGKGNDGIAAFVQRLPGAIGYVEYAYAKQNNLAYTKLISADGKPVSPTEENFCNAAKGADWSKTFAQDLTNQKGEDAWPITSTTFILIHKDQKKPEQGTEVLKFFDWAYKTGAKQANDLDYASLPDSVVEQVRAAWKTNIKDSSGKPLY | 0.02 | 0.82 |
| phosphate BP N226C JPW4045 (conjugate, UniProt P0AG82 26-346, looked up, variant N226C, JPW4045 dye conjugate) Phosphate-binding protein PstS: EASLTGAGATFPAPVYAKWADTYQKETGNKVNYQGIGSSGGVKQIIANTVDFGASDAPLSDEKLAQEGLFQFPTVIGGVVLAVNIPGLKSGELVLDGKTLGDIYLGKIKKWDDEAIAKLNPGLKLPSQNIAVVRRADGSGTSFVFTSYLAKVNEEWKNNVGTGSTVKWPIGLGGKGNDGIAAFVQRLPGAIGYVEYAYAKQNNLAYTKLISADGKPVSPTEENFACAAKGADWSKTFAQDLTNQKGEDAWPITSTTFILIHKDQKKPEQGTEVLKFFDWAYKTGAKQANDLDYASLPDSVVEQVRAAWKTNIKDSSGKPLY | 0.53 | 3.83 |
| phosphate BP A225C Fluorescein (conjugate, UniProt P0AG82 26-346, looked up, variant A225C, fluorescein label) Phosphate-binding protein PstS: EASLTGAGATFPAPVYAKWADTYQKETGNKVNYQGIGSSGGVKQIIANTVDFGASDAPLSDEKLAQEGLFQFPTVIGGVVLAVNIPGLKSGELVLDGKTLGDIYLGKIKKWDDEAIAKLNPGLKLPSQNIAVVRRADGSGTSFVFTSYLAKVNEEWKNNVGTGSTVKWPIGLGGKGNDGIAAFVQRLPGAIGYVEYAYAKQNNLAYTKLISADGKPVSPTEENFCNAAKGADWSKTFAQDLTNQKGEDAWPITSTTFILIHKDQKKPEQGTEVLKFFDWAYKTGAKQANDLDYASLPDSVVEQVRAAWKTNIKDSSGKPLY | 0.01 | 0.97 |
| phosphate BP S39C JPW4042 (conjugate, UniProt P0AG82 26-346, looked up, variant S39C, JPW4042 dye label) Phosphate-binding protein PstS: EASLTGAGATFPAPVYAKWADTYQKETGNKVNYQGIGSCGGVKQIIANTVDFGASDAPLSDEKLAQEGLFQFPTVIGGVVLAVNIPGLKSGELVLDGKTLGDIYLGKIKKWDDEAIAKLNPGLKLPSQNIAVVRRADGSGTSFVFTSYLAKVNEEWKNNVGTGSTVKWPIGLGGKGNDGIAAFVQRLPGAIGYVEYAYAKQNNLAYTKLISADGKPVSPTEENFANAAKGADWSKTFAQDLTNQKGEDAWPITSTTFILIHKDQKKPEQGTEVLKFFDWAYKTGAKQANDLDYASLPDSVVEQVRAAWKTNIKDSSGKPLY | 0.01 | 0.15 |
| phosphate BP A225C NBD (conjugate, UniProt P0AG82 26-346, looked up, variant A225C, NBD conjugate) Phosphate-binding protein PstS: EASLTGAGATFPAPVYAKWADTYQKETGNKVNYQGIGSSGGVKQIIANTVDFGASDAPLSDEKLAQEGLFQFPTVIGGVVLAVNIPGLKSGELVLDGKTLGDIYLGKIKKWDDEAIAKLNPGLKLPSQNIAVVRRADGSGTSFVFTSYLAKVNEEWKNNVGTGSTVKWPIGLGGKGNDGIAAFVQRLPGAIGYVEYAYAKQNNLAYTKLISADGKPVSPTEENFCNAAKGADWSKTFAQDLTNQKGEDAWPITSTTFILIHKDQKKPEQGTEVLKFFDWAYKTGAKQANDLDYASLPDSVVEQVRAAWKTNIKDSSGKPLY | 0.81 | 1.21 |
